Data from IntAct's records for PubMed 16438971.

B1: Calcium-dependent protein kinase 11 (Arabidopsis thaliana (Mouse-ear cress)), Q39016 (parent)
chain: METKPNPRRPSNTVLPYQTPRLRDHYLLGKKLGQGQFGTTYLCTEKSTSANYACKSIPKRKLVCREDYEDVWREIQIMHHLSEHPNVVRIKGTYEDSVFVHIVMEVCEGGELFDRIVSKGHFSEREAVKLIKTILGVVEACHSLGVMHRDLKPENFLFDSPKDDAKLKATDFGLSVFYKPGQYLYDVVGSPYYVAPEVLKKCYGPEIDVWSAGVILYILLSGVPPFWAETESGIFRQILQGKLDFKSDPWPTISEAAKDLIYKMLERSPKKRISAHEALCHPWIVDEQAAPDKPLDPAVLSRLKQFSQMNKIKKMALRVIAERLSEEEIGGLKELFKMIDTDNSGTITFEELKAGLKRVGSELMESEIKSLMDAADIDNSGTIDYGEFLAATLHMNKMEREENLVAAFSYFDKDGSGYITIDELQSACTEFGLCDTPLDDMIKEIDLDNDGKIDFSEFTAMMRKGDGVGRSRTMMKNLNFNIADAFGVDGEKSDD
partner: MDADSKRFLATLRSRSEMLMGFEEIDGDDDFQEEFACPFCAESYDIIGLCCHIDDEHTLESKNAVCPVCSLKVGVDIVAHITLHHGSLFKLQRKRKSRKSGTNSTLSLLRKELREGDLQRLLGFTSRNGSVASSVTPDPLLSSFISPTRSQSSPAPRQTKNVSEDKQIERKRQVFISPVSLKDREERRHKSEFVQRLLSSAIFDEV
B2: Protein …ON-INDUCED 19 (Arabidopsis thaliana (Mouse-ear cress)), Q39083 (parent)
chain: B1 partner
partner: B1 chain

Variants of: B1
Conditions: with di191_arath DI19-1, Q39083

Row | Variant | effect of a mutation on the interaction
1 | METKPNPRRPSNTVLPYQTPRLRDHYLLGKKLGQGQFGTTYLCTEKSTSANYACKSIPKRKLVCREDYEDVWREIQIMHHLSEHPNVVRIKGTYEDSVFVHIVMEVCEGGELFDRIVSKGHFSEREAVKLIKTILGVVEACHSLGVMHRDLKPENFLFDSPKDDAKLKATAFGLSVFYKPGQYLYDVVGSPYYVAPEVLKKCYGPEIDVWSAGVILYILLSGVPPFWAETESGIFRQILQGKLDFKSDPWPTISEAAKDLIYKMLERSPKKRISAHEALCHPWIVDEQAAPDKPLDPAVLSRLKQASQMNKIKKMALRVIAERLSEEEIGGLKELFKMIDTDNSGTITFEELKAGLKRVGSELMESEIKSLMDAADIDNSGTIDYGEFLAATLHMNKMEREENLVAAFSYFDKDGSGYITIDELQSACTEFGLCDTPLDDMIKEIDLDNDGKIDFSEFTAMMRKGDGVGRSRTMMKNLNFNIADAFGVDGEKSDD [D171A;F306A] | increasing interaction
2 | METKPNPRRPSNTVLPYQTPRLRDHYLLGKKLGQGQFGTTYLCTEKSTSANYACKSIPKRKLVCREDYEDVWREIQIMHHLSEHPNVVRIKGTYEDSVFVHIVMEVCEGGELFDRIVSKGHFSEREAVKLIKTILGVVEACHSLGVMHRALKPENFLFDSPKDDAKLKATDFGLSVFYKPGQYLYDVVGSPYYVAPEVLKKCYGPEIDVWSAGVILYILLSGVPPFWAETESGIFRQILQGKLDFKSDPWPTISEAAKDLIYKMLERSPKKRISAHEALCHPWIVDEQAAPDKPLDPAVLSRLKQASQMNKIKKMALRVIAERLSEEEIGGLKELFKMIDTDNSGTITFEELKAGLKRVGSELMESEIKSLMDAADIDNSGTIDYGEFLAATLHMNKMEREENLVAAFSYFDKDGSGYITIDELQSACTEFGLCDTPLDDMIKEIDLDNDGKIDFSEFTAMMRKGDGVGRSRTMMKNLNFNIADAFGVDGEKSDD [D150A;F306A] | increasing interaction

Variants of: B1
Conditions: with di191_arath DI19-1, Q39083
Remark: another data set of the same source

Row | Variant | effect of a mutation on the interaction
3 | METKPNPRRPSNTVLPYQTPRLRDHYLLGKKLGQGQFGTTYLCTEKSTSANYACKSIPKRKLVCREDYEDVWREIQIMHHLSEHPNVVRIKGTYEDSVFVHIVMEVCEGGELFDRIVSKGHFSEREAVKLIKTILGVVEACHSLGVMHRALKPENFLFDSPKDDAKLKATDFGLSVFYKPGQYLYDVVGSPYYVAPEVLKKCYGPEIDVWSAGVILYILLSGVPPFWAETESGIFRQILQGKLDFKSDPWPTISEAAKDLIYKMLERSPKKRISAHEALCHPWIVDEQAAPDKPLDPAVLSRLKQFSQMNKIKKMALRVIAERLSEEEIGGLKELFKMIDTDNSGTITFEELKAGLKRVGSELMESEIKSLMDAADIDNSGTIDYGEFLAATLHMNKMEREENLVAAFSYFDKDGSGYITIDELQSACTEFGLCDTPLDDMIKEIDLDNDGKIDFSEFTAMMRKGDGVGRSRTMMKNLNFNIADAFGVDGEKSDD [D150A] | increasing interaction

Variants of: B1
Conditions: with di191_arath DI19-1, Q39083
Remark: another data set of the same source

Row | Variant | effect of a mutation on the interaction
4 | METKPNPRRPSNTVLPYQTPRLRDHYLLGKKLGQGQFGTTYLCTEKSTSANYACKSIPKRKLVCREDYEDVWREIQIMHHLSEHPNVVRIKGTYEDSVFVHIVMEVCEGGELFDRIVSKGHFSEREAVKLIKTILGVVEACHSLGVMHRALKPENFLFDSPKDDAKLKATDFGLSVFYKPGQYLYDVVGSPYYVAPEVLKKCYGPEIDVWSAGVILYILLSGVPPFWAETESGIFRQILQGKLDFKSDPWPTISEAAKDLIYKMLERSPKKRISAHEALCHPWIVDEQAAPDKPLDPAVLSRLKQFSQMNKIKKMALRVIAERLSEEEIGGLKELFKMIDTDNSGTITFEELKAGLKRVGSELMESEIKSLMDAADIDNSGTIDYGEFLAATLHMNKMEREENLVAAFSYFDKDGSGYITIDELQSACTEFGLCDTPLDDMIKEIDLDNDGKIDFSEFTAMMRKGDGVGRSRTMMKNLNFNIADAFGVDGEKSDD [D150A] | disrupting interaction

Variants of: B1
Conditions: with di191_arath DI19-1, Q39083
Remark: another data set of the same source

Row | Variant | effect of a mutation on the interaction
5 | METKPNPRRPSNTVLPYQTPRLRDHYLLGKKLGQGQFGTTYLCTEKSTSANYACKSIPKRKLVCREDYEDVWREIQIMHHLSEHPNVVRIKGTYEDSVFVHIVMEVCEGGELFDRIVSKGHFSEREAVKLIKTILGVVEACHSLGVMHRDLKPENFLFDSPKDDAKLKATDFGLSVFYKPGQYLYDVVGSPYYVAPEVLKKCYGPEIDVWSAGVILYILLSGVPPFWAETESGIFRQILQGKLDFKSDPWPTISEAAKDLIYKMLERSPKKRISAHEALCHPWIVDEQAAPDKPLDPAVLSRLKQASQMNKIKKMALRVIAERLSEEEIGGLKELFKMIDTDNSGTITFEELKAGLKRVGSELMESEIKSLMDAADIDNSGTIDYGEFLAATLHMNKMEREENLVAAFSYFDKDGSGYITIDELQSACTEFGLCDTPLDDMIKEIDLDNDGKIDFSEFTAMMRKGDGVGRSRTMMKNLNFNIADAFGVDGEKSDD [F306A] | increasing interaction

Variants of: B2
Conditions: with cdpkb_arath CPK11, Q39016

Row | Variant | effect of a mutation on the interaction
6 | MDADSKRFLATLRSRSEMLMGFEEIDGDDDFQEEFACPFCAESYDIIGLCCHIDDEHTLESKNAVCPVCSLKVGVDIVAHITLHHGSLFKLQRKRKSRKSGTNSALSLLRKELREGDLQRLLGFTSRNGSVASSVTPDPLLSSFISPTRSQSSPAPRQTKNVSEDKQIERKRQVFISPVSLKDREERRHKSEFVQRLLSSAIFDEV [T105A] | decreasing interaction
7 | MDADSKRFLATLRSRSEMLMGFEEIDGDDDFQEEFACPFCAESYDIIGLCCHIDDEHTLESKNAVCPVCSLKVGVDIVAHITLHHGSLFKLQRKRKSRKSGTNSTLALLRKELREGDLQRLLGFTSRNGSVASSVTPDPLLSSFISPTRSQSSPAPRQTKNVSEDKQIERKRQVFISPVSLKDREERRHKSEFVQRLLSSAIFDEV [S107A] | decreasing interaction
